Several values for one entry are separate records, joined by “and”; a condition that tells them apart may be missing. Identical values can stand only once.
System: CN(C)CCc1c[nH]c2ccc(C[C@H]3COC(=O)N3)cc12
Assay: cells, lysate or membranes
Conditions: other: HEK293, 1 min, net uptake; pH 7.4; 37.0 °C

Chain of MATE2K (Homo sapiens) (chain, as listed by the source): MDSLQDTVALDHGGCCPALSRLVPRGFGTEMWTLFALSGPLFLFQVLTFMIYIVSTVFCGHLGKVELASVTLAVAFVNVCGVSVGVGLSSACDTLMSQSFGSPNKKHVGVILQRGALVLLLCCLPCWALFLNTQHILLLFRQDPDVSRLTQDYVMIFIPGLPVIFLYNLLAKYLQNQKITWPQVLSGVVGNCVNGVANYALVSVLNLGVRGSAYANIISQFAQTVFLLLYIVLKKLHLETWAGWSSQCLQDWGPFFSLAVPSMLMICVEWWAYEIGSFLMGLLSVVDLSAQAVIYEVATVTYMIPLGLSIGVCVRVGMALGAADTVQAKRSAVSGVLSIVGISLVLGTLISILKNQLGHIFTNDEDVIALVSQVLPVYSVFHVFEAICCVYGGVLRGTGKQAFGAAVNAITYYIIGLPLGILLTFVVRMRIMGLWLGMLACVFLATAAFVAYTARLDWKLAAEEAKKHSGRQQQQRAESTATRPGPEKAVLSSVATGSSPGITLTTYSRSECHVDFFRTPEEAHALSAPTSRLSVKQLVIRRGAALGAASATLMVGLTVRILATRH

For MATE2K (Homo sapiens), which Km is on record?
The Km was 23.1 µM and 18.3 µM.

What about the Vmax of the same substance?
Its Vmax is 0.00074 µmol/min/mg and 0.000992 µmol/min/mg.

And the Vmax/Km?
The Vmax/Km was 32.1 µL/min/mg and 54.2 µL/min/mg.

From publication PMC12207590, “Substrate Specificity of the Organic Cation Transporters MATE1 and MATE2K and Functional Overlap with OCT1 and OCT2” (Journal of Medicinal Chemistry, 2025)
